US20170210787A1 (Janssen / Centocor, published 2017)
Read-outs that look alike come from different tables or passages of the source.

Key:
tau 299-369 [1] = target: tau 299-369 (human); assay: ELISA on biotinylated peptide captured on streptavidin plate, IgG titrated [a]
tau 299-369 [2] = target: tau 299-369 (human); assay: peptide ELISA, 1 ug/mL
tau 299-369 [3] = target: tau 299-369 (human); assay: peptide ELISA, 1 ug/mL; remark: listed apart in the source
tau 299-369 [4] = target: tau 299-369 (human); assay: ELISA on biotinylated peptide captured on streptavidin plate, IgG titrated [a]; remark: listed apart in the source

EC50 (read off the curve) (tau 299-369 [1]): ~0.2 µg/mL
OD450 (tau 299-369 [2]): > 1.5 od
OD450 (tau 299-369 [3]): 1 to 1.5 od
EC50 (read off the curve) (tau 299-369 [4]): ~0.1 µg/mL
B1: CBTAU-27.1 (antibody, V domains shown)
VH: QVQLVESGPEMRKPGESLKISCKTSGYIFSDYWTAWVRQLPGKGLQWMGIIYSGDSDTRYHPSVQGHVTMSTDSSLTTAYLQWSSLKASDTGIYYCARLDARVDAGWQLDSWGQGTLVTVSS
VL: DIQLTQSPDSLAVSLGERATINCKSSQSVFSRDNNKNYLAWYQHKSGQPPKLLFFWASSRESGVSDRFSGSGSGTDFTLTIDNLQAEDVALYYCQHYFNTPHNFGQGTKLEIK
